Where no end group is shown, it is not given here. MBP = not defined here
Columns and labels:
[1] = biological target: T1, Kap104p (yeast (S. cerevisiae), UniProt P38217 1-918); assay: ITC; 90–350 μM MBP-NLS titrated into 9–35 μM Kap104p in the cell; 20 °C; 20 mM Tris pH 7.5, 100 mM NaCl, 2 mM β-mercaptoethanol, 10% glycerol; 35 injections of 8 μl; single-site model; settings: both partners purified
T1 construct: Kap104p, yeast homolog of Kapβ2; gene a gift from J. Aitchison, subcloned into pGEX-Tev; also called yeast Karyopherin β2 homolog; source: E. coli Rosetta(DE3)pLysS, purified (glutathione sepharose, TEV cleavage, anion exchange, gel filtration)
T1 sequence (looked up): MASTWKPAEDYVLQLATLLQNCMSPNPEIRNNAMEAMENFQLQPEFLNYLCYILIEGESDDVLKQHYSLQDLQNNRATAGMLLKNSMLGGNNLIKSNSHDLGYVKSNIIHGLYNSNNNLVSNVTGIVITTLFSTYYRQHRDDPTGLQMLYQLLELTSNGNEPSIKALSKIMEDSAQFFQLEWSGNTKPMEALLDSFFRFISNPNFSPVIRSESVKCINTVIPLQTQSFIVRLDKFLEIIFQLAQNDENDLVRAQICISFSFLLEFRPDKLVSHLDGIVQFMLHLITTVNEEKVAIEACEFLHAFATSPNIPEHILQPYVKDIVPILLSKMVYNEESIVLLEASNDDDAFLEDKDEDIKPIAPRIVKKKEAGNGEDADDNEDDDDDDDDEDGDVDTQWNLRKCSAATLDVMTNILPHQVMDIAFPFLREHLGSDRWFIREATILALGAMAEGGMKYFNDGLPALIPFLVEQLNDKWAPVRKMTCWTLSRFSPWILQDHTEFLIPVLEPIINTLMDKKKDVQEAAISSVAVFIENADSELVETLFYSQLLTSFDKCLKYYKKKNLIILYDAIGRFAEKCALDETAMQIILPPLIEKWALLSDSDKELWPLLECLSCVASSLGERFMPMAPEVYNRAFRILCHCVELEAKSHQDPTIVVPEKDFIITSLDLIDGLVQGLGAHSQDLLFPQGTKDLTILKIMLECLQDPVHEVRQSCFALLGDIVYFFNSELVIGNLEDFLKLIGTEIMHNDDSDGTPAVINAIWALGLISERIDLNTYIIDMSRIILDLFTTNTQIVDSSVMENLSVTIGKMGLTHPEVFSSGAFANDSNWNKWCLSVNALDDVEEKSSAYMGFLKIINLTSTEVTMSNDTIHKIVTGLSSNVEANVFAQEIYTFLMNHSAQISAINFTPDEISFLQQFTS

[2] = biological target: T2, Kap104p, P38217; assay: ITC; settings: for ddG / ratio to parent: chain shown with the change; for other: TΔS / Kd / other: ΔH / dG: chain shown with the change;; for other: TΔS: parent: 0.09 ± 0.7; for Kd: parent: 32 ± 16; for other: ΔH: parent: -10.0 ± 0.5; for dG: parent: -10.1 ± 0.3
T2 chain: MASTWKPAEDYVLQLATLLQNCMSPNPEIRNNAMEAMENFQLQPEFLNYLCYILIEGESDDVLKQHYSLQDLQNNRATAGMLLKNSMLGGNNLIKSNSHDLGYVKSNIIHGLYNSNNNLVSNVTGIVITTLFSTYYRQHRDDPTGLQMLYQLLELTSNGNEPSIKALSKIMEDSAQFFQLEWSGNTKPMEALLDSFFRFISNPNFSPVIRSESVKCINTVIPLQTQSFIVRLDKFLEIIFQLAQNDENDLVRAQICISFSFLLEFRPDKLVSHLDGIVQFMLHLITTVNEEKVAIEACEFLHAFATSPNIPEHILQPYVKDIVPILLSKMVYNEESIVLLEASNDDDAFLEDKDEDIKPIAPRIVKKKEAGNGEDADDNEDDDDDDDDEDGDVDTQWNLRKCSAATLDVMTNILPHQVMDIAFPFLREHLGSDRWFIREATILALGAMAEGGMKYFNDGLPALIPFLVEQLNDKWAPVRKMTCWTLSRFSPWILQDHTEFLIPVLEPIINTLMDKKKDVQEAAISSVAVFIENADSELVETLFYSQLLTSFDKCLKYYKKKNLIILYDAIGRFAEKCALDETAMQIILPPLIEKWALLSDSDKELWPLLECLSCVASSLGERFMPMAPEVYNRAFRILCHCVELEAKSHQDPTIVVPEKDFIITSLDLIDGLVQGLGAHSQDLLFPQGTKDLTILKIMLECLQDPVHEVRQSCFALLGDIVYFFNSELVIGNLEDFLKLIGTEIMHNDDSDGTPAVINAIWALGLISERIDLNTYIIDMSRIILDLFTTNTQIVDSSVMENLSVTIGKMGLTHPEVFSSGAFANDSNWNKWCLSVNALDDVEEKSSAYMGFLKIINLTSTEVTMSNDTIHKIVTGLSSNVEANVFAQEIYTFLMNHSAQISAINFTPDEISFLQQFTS

B1: MBP–Hrp1p NLS (domain or fragment, S. cerevisiae, UniProt Q99383 494-534, looked up)
chain: RDRNDRDRDYNHRSGGNHRRNGRGGRGGYNRRNNGYHPYNR
notes: Hrp1p NLS, residues 494-534; also called Hrp1p NLS wild type; source: E. coli BL21(DE3), purified (amylose resin, cation exchange)
- Kd [1]: 32 nM

B2: MBP–Hrp1p NLS 512RRNG515/AAAA (domain or fragment, S. cerevisiae, UniProt Q99383 494-534, looked up)
chain: RDRNDRDRDYNHRSGGNHAAAARGGRGGYNRRNNGYHPYNR
notes: Hrp1p NLS, residues 494-534; source: E. coli BL21(DE3), purified (amylose resin, cation exchange)
- ddG [2]: 0.2 kcal/mol
- ratio to parent [2]: 1.5
- other: TΔS [2]: 1.5 kcal/mol/K
- Kd [2]: 48 nM
- other: ΔH [2]: -8.3 kcal/mol
- dG [2]: -9.8 kcal/mol
- binding result [1]: binds

B3: MBP–Hrp1p NLS 506RSGG509/AAAA (domain or fragment, S. cerevisiae, UniProt Q99383 494-534, looked up)
chain: RDRNDRDRDYNHAAAANHRRNGRGGRGGYNRRNNGYHPYNR
notes: as for B2
- ddG [2]: 0.02 kcal/mol
- ratio to parent [2]: 1.3
- other: TΔS [2]: -2.6 kcal/mol/K
- Kd [2]: 42 nM
- other: ΔH [2]: -12.6 kcal/mol
- dG [2]: -10 kcal/mol
- binding result [1]: binds

B4: MBP–Hrp1p NLS Y532F (domain or fragment, S. cerevisiae, UniProt Q99383 494-534, looked up)
chain: RDRNDRDRDYNHRSGGNHRRNGRGGRGGYNRRNNGYHPFNR
notes: as for B2
- fold decrease in affinity against wild type [1]: 4 fold

B5: MBP–Hrp1p NLS 531PY532/AA (domain or fragment, S. cerevisiae, UniProt Q99383 494-534, looked up)
chain: {MBP}-RDRNDRDRDYNHRSGGNHRRNGRGGRGGYNRRNNGYHAANR
modifications: reading uncertain
notes: as for B2
- Kd [1]: > 10000 nM

B6: MBP–Hrp1p NLS 516RGG518/AAA (domain or fragment, S. cerevisiae, UniProt Q99383 494-534, looked up)
chain: RDRNDRDRDYNHRSGGNHRRNGAAARGGYNRRNNGYHPYNR
notes: as for B2
- ddG [2]: -0.3 kcal/mol
- ratio to parent [2]: 0.7
- other: TΔS [2]: 2 kcal/mol/K
- Kd [2]: 24 nM
- other: ΔH [2]: -8.3 kcal/mol
- dG [2]: -10.3 kcal/mol
- binding result [1]: binds

B7: MBP–Hrp1p NLS Y532H (domain or fragment, S. cerevisiae, UniProt Q99383 494-534, looked up)
chain: RDRNDRDRDYNHRSGGNHRRNGRGGRGGYNRRNNGYHPHNR
notes: as for B2
- Kd [1]: 1000 nM

B8: MBP–Hrp1p NLS Y532M (domain or fragment, S. cerevisiae, UniProt Q99383 494-534, looked up)
chain: RDRNDRDRDYNHRSGGNHRRNGRGGRGGYNRRNNGYHPMNR
notes: as for B2
- Kd [1]: 2000 nM

B9: MBP–Nab2p NLS (domain or fragment, S. cerevisiae, UniProt P32505 201-251, looked up)
chain: DNSQRFTQRGGGAVGKNRRGGRGGNRGGRNNNSTRFNPLAKALGMAGESNM
notes: Nab2p NLS, residues 201-251 (methods; the results say 201-250); also called Nab2p NLS wild type; source: E. coli BL21(DE3), purified (amylose resin, cation exchange)
- Kd [1]: 37 nM

B10: MBP–Nab2p NLS L239T (domain or fragment, S. cerevisiae, UniProt P32505 201-251, looked up)
chain: DNSQRFTQRGGGAVGKNRRGGRGGNRGGRNNNSTRFNPTAKALGMAGESNM
notes: Nab2p NLS, residues 201-251; also called L239 to T; source: E. coli BL21(DE3), purified (amylose resin, cation exchange)
- binding result [1]: binds

B11: MBP–Nab2p NLS R222A, 238PL239/AA (domain or fragment, S. cerevisiae, UniProt P32505 201-251, looked up)
chain: DNSQRFTQRGGGAVGKNRRGGAGGNRGGRNNNSTRFNAAAKALGMAGESNM
notes: Nab2p NLS, residues 201-251; source: E. coli BL21(DE3), purified (amylose resin, cation exchange)
- Kd [1]: 411 nM

B12: MBP–Nab2p NLS L239N (domain or fragment, S. cerevisiae, UniProt P32505 201-251, looked up)
chain: DNSQRFTQRGGGAVGKNRRGGRGGNRGGRNNNSTRFNPNAKALGMAGESNM
notes: Nab2p NLS, residues 201-251; also called L239 to N; source: E. coli BL21(DE3), purified (amylose resin, cation exchange)
- binding result [1]: binds

B13: MBP–Nab2p NLS L239G (domain or fragment, S. cerevisiae, UniProt P32505 201-251, looked up)
chain: DNSQRFTQRGGGAVGKNRRGGRGGNRGGRNNNSTRFNPGAKALGMAGESNM
notes: as for B11
- binding result [1]: binds

B14: MBP–Nab2p NLS 238PL239/PY (domain or fragment, S. cerevisiae, UniProt P32505 201-251, looked up)
chain: {MBP}-DNSQRFTQRGGGAVGKNRRGGRGGNRGGRNNNSTRFNPYAKALGMAGESNM
modifications: reading uncertain
notes: Nab2p NLS, residues 201-251; also called L239Y; source: E. coli BL21(DE3), purified (amylose resin, cation exchange)
- Kd [1]: 13 nM

B15: MBP–Nab2p NLS F236L (domain or fragment, S. cerevisiae, UniProt P32505 201-251, looked up)
chain: DNSQRFTQRGGGAVGKNRRGGRGGNRGGRNNNSTRLNPLAKALGMAGESNM
notes: as for B11
- binding result [1]: binds

B16: MBP–Nab2p NLS 238PL239/AA (domain or fragment, S. cerevisiae, UniProt P32505 201-251, looked up)
chain: DNSQRFTQRGGGAVGKNRRGGRGGNRGGRNNNSTRFNAAAKALGMAGESNM
notes: as for B11
- Kd [1]: 376 nM

B17: MBP–Nab2p NLS F236A (domain or fragment, S. cerevisiae, UniProt P32505 201-251, looked up)
chain: DNSQRFTQRGGGAVGKNRRGGRGGNRGGRNNNSTRANPLAKALGMAGESNM
notes: as for B11
- KD,mutant/KD,wild type [1]: 8

B18: MBP–Nab2p NLS R235A, 238PL239/AA (domain or fragment, S. cerevisiae, UniProt P32505 201-251, looked up)
chain: DNSQRFTQRGGGAVGKNRRGGRGGNRGGRNNNSTAFNAAAKALGMAGESNM
notes: as for B11
- Kd [1]: 544 nM

B19: MBP–Nab2p NLS R235K (domain or fragment, S. cerevisiae, UniProt P32505 201-251, looked up)
chain: DNSQRFTQRGGGAVGKNRRGGRGGNRGGRNNNSTKFNPLAKALGMAGESNM
notes: Nab2p NLS, residues 201-251; also called R235 to lysine; source: E. coli BL21(DE3), purified (amylose resin, cation exchange)
- KD,mutant/KD,wild type [1]: 1

B20: MBP–Nab2p NLS R229A (domain or fragment, S. cerevisiae, UniProt P32505 201-251, looked up)
chain: DNSQRFTQRGGGAVGKNRRGGRGGNRGGANNNSTRFNPLAKALGMAGESNM
notes: as for B11
- KD,mutant/KD,wild type [1]: ~1

Source: PMC2408616, “Modular Organization and Combinatorial Energetics of Proline–Tyrosine Nuclear Localization Signals” (PLoS Biology, 2008)
